Results on two substances are retold here after paper PMC3836765.

The target in assay [1] is MDM2 (human (endogenous in SJSA-1)) (UniProt Q00987).
Assay [2] deals with MDMX (human (endogenous in SJSA-1)) (UniProt O15151).
Assay [3] deals with MDM2 (human (endogenous in SJSA-1)) (UniProt Q00987). The source holds these as a separate data set.
Assay [4] addresses MDMX (human (endogenous in SJSA-1)) (UniProt O15151). The source holds these as a separate data set.
Assay [5] deals with MDM2 (human (endogenous in SJSA-1)) (UniProt Q00987). This is another data set of the same source.
Assay [6] deals with MDMX (human (endogenous in SJSA-1)) (UniProt O15151). This is another data set of the same source.

MDM2 (human (endogenous in SJSA-1)), sequence (Q00987 whole entry): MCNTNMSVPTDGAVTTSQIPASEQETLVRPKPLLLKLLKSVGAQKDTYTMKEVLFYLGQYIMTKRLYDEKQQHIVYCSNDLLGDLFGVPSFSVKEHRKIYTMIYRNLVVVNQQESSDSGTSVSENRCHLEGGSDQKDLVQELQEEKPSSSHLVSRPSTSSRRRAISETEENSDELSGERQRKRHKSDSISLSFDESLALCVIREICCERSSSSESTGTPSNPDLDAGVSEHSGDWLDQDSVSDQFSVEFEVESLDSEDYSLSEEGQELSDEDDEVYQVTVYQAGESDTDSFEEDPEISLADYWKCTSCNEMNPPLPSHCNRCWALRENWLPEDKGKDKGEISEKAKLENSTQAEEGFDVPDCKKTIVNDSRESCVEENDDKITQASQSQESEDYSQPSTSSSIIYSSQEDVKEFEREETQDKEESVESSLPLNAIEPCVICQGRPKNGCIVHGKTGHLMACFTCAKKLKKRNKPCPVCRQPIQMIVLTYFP
MDMX (human (endogenous in SJSA-1)), sequence (O15151 whole entry): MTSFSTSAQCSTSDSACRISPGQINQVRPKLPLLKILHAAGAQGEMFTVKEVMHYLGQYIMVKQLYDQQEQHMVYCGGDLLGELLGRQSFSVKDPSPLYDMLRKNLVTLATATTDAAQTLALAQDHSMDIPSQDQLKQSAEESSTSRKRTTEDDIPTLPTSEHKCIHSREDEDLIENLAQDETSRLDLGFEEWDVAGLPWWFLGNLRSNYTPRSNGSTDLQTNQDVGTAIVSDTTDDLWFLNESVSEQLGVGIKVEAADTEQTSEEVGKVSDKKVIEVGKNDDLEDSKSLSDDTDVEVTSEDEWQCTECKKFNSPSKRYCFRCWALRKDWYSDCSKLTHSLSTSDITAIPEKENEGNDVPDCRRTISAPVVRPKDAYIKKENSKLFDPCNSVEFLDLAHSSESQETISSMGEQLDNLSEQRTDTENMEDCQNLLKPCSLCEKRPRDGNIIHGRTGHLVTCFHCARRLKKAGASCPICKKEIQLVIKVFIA

Turning to “recombinant human serum albumin fused at its C-terminus to the MDM2/MDMX-binding peptide N8A-PMI (rHSA-PMI), biotinylated (from UniProt P02768 25-608)”, the caspase activation in SJSA-1 cells, Homogeneous Caspase Assay, 24 h, fold change in assay [1] and in assay [2] was 7 fold each time. Further, the cytotoxicity in SJSA-1 cells, CyQuant Assay, 24 h, percent cell death relative to 10 uM rHSA-treated cells (concentrations as indicated in Figure 4A) in assay [3] and in assay [4] was 84 % cell death in each case. The p53 protein level in SJSA-1 cells after 24 h with 10 uM protein, Western blot densitometry, fold increase in assay [5] and in assay [6] was 2.9 fold in each case.
For “recombinant human serum albumin fused at its C-terminus to the wild type p53-derived peptide P53i (rHSA-P53i), biotinylated (from UniProt P02768 25-608)”, the caspase activation in SJSA-1 cells, Homogeneous Caspase Assay, 24 h, fold change in assay [1] and in assay [2] was less than 2 fold in each case. Besides, the cytotoxicity in SJSA-1 cells, CyQuant Assay, 24 h, percent cell death relative to 10 uM rHSA-treated cells (concentrations as indicated in Figure 4A) in assay [3] and in assay [4] was 60 % cell death throughout. Further, the p53 protein level in SJSA-1 cells after 24 h with 10 uM protein, Western blot densitometry, fold increase in assay [5] and in assay [6] was 1.5 fold in each case.
